Laboratory results published in the supplement of paper PMC11316812.
± gives the standard deviation of the averaged measurements.

Assays:
MCF7 = experiment: percentage of EdU-negative (G0-arrested) nuclei per well, 72 h; higher = more G0 arrest; conditions: reference: sequence is the full UniProt precursor, the tested protein was the secreted form or ectodomain
hTERT-HMEC = experiment: as above; conditions: reference: sequence is the full UniProt precursor, the tested protein was the secreted form or ectodomain
[1] = protein concentration 0.0225 µM
[2] = protein concentration 0.01375 µM
[3] = protein concentration 0.1375 µM
[4] = protein concentration 0.01525 µM
[5] = protein concentration 0.1525 µM
[6] = protein concentration 0.00925 µM
[7] = protein concentration 0.0925 µM
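Also: secreted proteins added to cultured cells, EdU pulse at the end, nuclei found by Hoechst imaging, EdU status from nuclear versus surrounding ring intensity ratio, PBS as neutral control.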

**Q.** How did the “percentage of EdU-negative” value (MCF7; [1]) turn out when “MSFPCKFVASFLLIFNVSSKGAVSKEITNALETWGALGQDINLDIPSFQMSDDIDDIKWEKTSDKKKIAQFRKEKETFKEKDTYKLFKNGTLKIKHLKTDDQDIYKVSIYDTKGKNVLEKIFDLKIQERVSKPKISWTCINTTLTCEVMNGTDPELNLYQDGKHLKLSQRVITHKWTTSLSAKFKCTAGNKVSKESSVEPVSCPEKGLDIYLIIGICGGGSLLMVFVALLVFYITKRKKQRSRRNDEELETRAHRVATEERGRKPHQIPASTPQNPATSQHPPPPPGHRSQAPSHRPPPPGHRVQHQPQKRPPAPSGTQVHQQKGPPLPRPRVQPKPPHGAAENSLSPSSN” was run?
**A.** 24.6 ± 0.84%

**Q.** And the “percentage of EdU-negative” value (MCF7; protein concentration 0.225 µM)?
**A.** 26.8 ± 0.55%

**Q.** And the “percentage of EdU-negative” value (hTERT-HMEC; [1])?
**A.** 5.27 ± 1.3%

**Q.** And the “percentage of EdU-negative” value (hTERT-HMEC; protein concentration 0.225 µM)?
**A.** 5.92 ± 0.1%

**Q.** Which results are given for “MSGAPTAGAALMLCAATAVLLSAQGGPVQSKSPRFASWDEMNVLAHGLLQLGQGLREHAERTRSQLSALERRLSACGSACQGTEGSTDLPLAPESRVDPEVLHSLQTQLKAQNSRIQQLFHKVAQQQRHLEKQHLRIQHLQSQFGLLDHKHLDHEVAKPARRKRLPEMAQPVDPAHNVSRLHRLPRDCQELFQVGERQSGLFEIQPQGSPPFLVNCKMTSDGGWTVIQRRHDGSVDFNRPWEAYKAGFGDPHGEFWLGLEKVHSITGDRNSRLAVQLRDWDGNAELLQFSVHLGGEDTAYSLQLTAPVAGQLGATTVPPSGLSVPFSTWDQDHDLRRDKNCAKSLSGGWWFGTCSHSNLNGQYFRSIPQQRQKLKKGIFWKTWRGRYYPLQATTMLIQPMAAEAAS [Q9BY76]”?
**A.** percentage of EdU-negative (MCF7; [2]): 23.9 ± 1.8%; percentage of EdU-negative (MCF7; [3]): 27.4 ± 1.9%; percentage of EdU-negative (hTERT-HMEC; [2]): 5.28 ± 0.74%; percentage of EdU-negative (hTERT-HMEC; [3]): 6.14 ± 0.59%

**Q.** For “MSGGHQLQLAALWPWLLMATLQAGFGRTGLVLAAAVESERSAEQKAIIRVIPLKMDPTGKLNLTLEGVFAGVAEITPAEGKLMQSHPLYLCNASDDDNLEPGFISIVKLESPRRAPRPCLSLASKARMAGERGASAVLFDITEDRAAAEQLQQPLGLTWPVVLIWGNDAEKLMEFVYKNQKAHVRIELKEPPAWPDYDVWILMTVVGTIFVIILASVLRIRCRPRHSRPDPLQQRTAWAISQLATRRYQASCRQARGEWPDSGSSCSSAPVCAICLEEFSEGQELRVISCLHEFHRNCVDPWLHQHRTCPLCMFNITEGDSFSQSLGPSRSYQEPGRRLHLIRQHPGHAHYHLPAAYLLGPSRSAVARPPRPGPFLPSQEPGMGPRHHRFPRAAHPRAPGEQQRLAGAQHPYAQGWGLSHLQSTSQHPAACPVPLRRARPPDSSGSGESYCTERSGYLADGPASDSSSGPCHGSSSDSVVNCTDISLQGVHGSSSTFCSSLSSDFDPLVYCSPKGDPQRVDMQPSVTSRPRSLDSVVPTGETQVSSHVHYHRHRHHHYKKRFQWHGRKPGPETGVPQSRPPIPRTQPQPEPPSPDQQVTRSNSAAPSGRLSNPQCPRALPEPAPGPVDASSICPSTSSLFNLQKSSLSARHPQRKRRGGPSEPTPGSRPQDATVHPACQIFPHYTPSVAYPWSPEAHPLICGPPGLDKRLLPETPGPCYSNSQPVWLCLTPRQPLEPHPPGEGPSEWSSDTAEGRPCPYPHCQVLSAQPGSEEELEELCEQAV [Q68DV7]”, which “percentage of EdU-negative” value (MCF7; protein concentration 0.032 µM) is on record?
**A.** 24.9 ± 1%

**Q.** What about the “percentage of EdU-negative” value (MCF7; protein concentration 0.32 µM) of the same sequence?
**A.** 23.5 ± 1.3%

**Q.** What about the “percentage of EdU-negative” value (hTERT-HMEC; protein concentration 0.032 µM) of the same sequence?
**A.** 4.69 ± 0.58%

**Q.** And the “percentage of EdU-negative” value (hTERT-HMEC; protein concentration 0.32 µM)?
**A.** 4.96 ± 0.2%

**Q.** “MSGGRAPAVLLGGVASLLLSFVWMPALLPVASRLLLLPRVLLTMASGSPPTQPSPASDSGSGYVPGSVSAAFVTCPNEKVAKEIARAVVEKRLAACVNLIPQITSIYEWKGKIEEDSEVLMMIKTQSSLVPALTDFVRSVHPYEVAEVIALPVEQGNFPYLQWVRQVTESVSDSITVLP” was tested. Which “percentage of EdU-negative” value (MCF7; [1]) did it give?
**A.** 25.3 ± 1.7%

**Q.** And the “percentage of EdU-negative” value (MCF7; protein concentration 0.225 µM)?
**A.** 25.2 ± 1.5%

**Q.** What about the “percentage of EdU-negative” value (hTERT-HMEC; [1]) of the same sequence?
**A.** 4.5 ± 0.32%

**Q.** What about the “percentage of EdU-negative” value (hTERT-HMEC; protein concentration 0.225 µM) of the same sequence?
**A.** 5.97 ± 0.34%

**Q.** With “MSGPGTAAVALLPAVLLALLAPWAGRGGAAAPTAPNGTLEAELERRWESLVALSLARLPVAAQPKEAAVQSGAGDYLLGIKRLRRLYCNVGIGFHLQALPDGRIGGAHADTRDSLLELSPVERGVVSIFGVASRFFVAMSSKGKLYGSPFFTDECTFKEILLPNNYNAYESYKYPGMFIALSKNGKTKKGNRVSPTMKVTHFLPRL” as the sequence, how does the “percentage of EdU-negative” value (MCF7; [4]) read?
**A.** 27.2 ± 2.4%

**Q.** And the “percentage of EdU-negative” value (MCF7; [5])?
**A.** 28.58 ± 0.13%

**Q.** What about the “percentage of EdU-negative” value (hTERT-HMEC; [4]) of the same sequence?
**A.** 5.05 ± 0.36%

**Q.** What about the “percentage of EdU-negative” value (hTERT-HMEC; [5]) of the same sequence?
**A.** 5.7993 ± 0.0024%

**Q.** How did the “percentage of EdU-negative” value (MCF7; [6]) turn out when “MSILFYVIFLAYLRGIQGNNMDQRSLPEDSLNSLIIKLIQADILKNKLSKQMVDVKENYQSTLPKAEAPREPERGGPAKSAFQPVIAMDTELLRQQRRYNSPRVLLSDSTPLEPPPLYLMEDYVGSPVVANRTSRRKRYAEHKSHRGEYSVCDSESLWVTDKSSAIDIRGHQVTVLGEIKTGNSPVKQYFYETRCKEARPVKNGCRGIDDKHWNSQCKTSQTYVRALTSENNKLVGWRWIRIDTSCVCALSRKIGRT” was run?
**A.** 25.37 ± 0.049%

**Q.** What about the “percentage of EdU-negative” value (MCF7; [7]) of the same sequence?
**A.** 27.3 ± 1.8%

**Q.** What about the “percentage of EdU-negative” value (hTERT-HMEC; [6]) of the same sequence?
**A.** 4.75 ± 0.28%

**Q.** And the “percentage of EdU-negative” value (hTERT-HMEC; [7])?
**A.** 6.72 ± 0.33%

**Q.** “MSISLSSLILLPIWINMAQIQQGGPDEKEKTTALKDLLSRIDLDELMKKDEPPLDFPDTLEGFEYAFNEKGQLRHIKTGEPFVFNYREDLHRWNQKRYEALGEIITKYVYELLEKDCNLKKVSIPVDATESEPKSFIFMSEDALTNPQKLMVLIHGSGVVRAGQWARRLIINEDLDSGTQIPFIKRAVAEGYGVIVLNPNENYIEVEKPKIHVQSSSDSSDEPAEKRERKDKVSKETKKRRDFYEKYRNPQREKEMMQLYIRENGSPEEHAIYVWDHFIAQAAAENVFFVAHSYGGLAFVELMIQREADVKNKVTAVALTDSVHNVWHQEAGKTIREWMRENCCNWVSSSEPLDTSVESMLPDCPRVSAGTDRHELTSWKSFPSIFKFFTEASEAKTSSLKPAVTRRSHRIKHEEL [Q8WUF8]” was tested. Which “percentage of EdU-negative” value (MCF7; [1]) did it give?
**A.** 24.1 ± 1.1%

**Q.** What about the “percentage of EdU-negative” value (MCF7; protein concentration 0.225 µM) of the same sequence?
**A.** 24 ± 0.46%

**Q.** And the “percentage of EdU-negative” value (hTERT-HMEC; [1])?
**A.** 4.387 ± 0.021%

**Q.** What about the “percentage of EdU-negative” value (hTERT-HMEC; protein concentration 0.225 µM) of the same sequence?
**A.** 5.5592 ± 0.0051%
